Results taken from the supplement of paper PMC9170038.

Tested on: MS2 coat protein
Test: apparent KD of MS2 coat protein; designed switch direction (-1 OFF switch, 1 ON switch): -1; higher = weaker reporter binding
How it was run: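 Three titration conditions were used: no input, 200 uM small-molecule ligand, and an oligonucleotide input. In each, SNAP-549-labelled MS2 coat protein was raised from 0.7 or 1.5 nM, doubling, to 3 µM over designed RNA switches transcribed on Illumina chips by stalled E. coli RNA polymerase. Curve fits of normalised cluster fluorescence gave values whose per-design median over clusters is the apparent KD.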

[1] = Eterna round: R95, input ligand: microRNA oligo, concentration not stated
[2] = Eterna round: R95, input ligand: FMN 200 uM
[3] = Eterna round: R95, input ligand: none
[4] = input ligand: microRNA oligo, concentration not stated

Sequence: AAUUCACAUGAGGAUCACCCAUGUCAGGAUAUGGUUUCACGUGUUUCGGUGCGUGAGGCCAGAAGGGACAGCUA (puzzle: Exclusion 1)
- apparent KD of MS2 coat protein [1]: 49.7 nM

Sequence: AAUUUACAUGAGGAUCACCCAUGUCAGGAUAUGGUUUUAUUUUUUUUUUUUUUUUAUUCCAGAAGGGACAGUUA (puzzle: Exclusion 1)
- apparent KD of MS2 coat protein [2]: 24.2 nM
- apparent KD of MS2 coat protein [1]: 17 nM
- apparent KD of MS2 coat protein [3]: 14.8 nM

Sequence: AAUUUAUGAGGAUAUACAGUGUAAAACAUGAGGAUCACCCAUGUUCUUCAAUUAGUAUUUGUAGAAGGCAUAUGUA [JR_Ex5_Sub095] (Eterna round: R97, puzzle: Exclusion 5)
- apparent KD of MS2 coat protein (input ligand: FMN 200 uM): 17.2 nM
- apparent KD of MS2 coat protein (input ligand: none): 17.1 nM

Sequence: ACAAACACGGCAGGAUAUCCUCGCAUAUGAUAGGUUGUUCUCCACAUGAGGAUCACCCAUGUCGAGGAGAAGGGCCAUCAUUCU [Tibema] (Eterna round: R96, puzzle: Exclusion NG 2)
- apparent KD of MS2 coat protein (input ligand: FMN 200 uM): 16.2 nM
- apparent KD of MS2 coat protein [4]: 12.7 nM
- apparent KD of MS2 coat protein (input ligand: none): 18.9 nM

Sequence: ACAAAGGAUACAGGAUAUCGCGUACAAGUGCAGCGAGAAGGGUAUUCUAUGCGCUAUCCGACAUGAGGAUCACCCAUGUGGUCC [Eternabot solution 47] (Eterna round: R96, puzzle: Exclusion NG 1)
- apparent KD of MS2 coat protein (input ligand: FMN 200 uM): 417 nM
- apparent KD of MS2 coat protein [4]: 851 nM
- apparent KD of MS2 coat protein (input ligand: none): 366 nM

Sequence: ACAACAAGCUUUUUGAACGUAGAACAUGCAGCUCUAGUCACAUGAGGAUCACCCAUGUCAGCCAGUUAGAUAGGUGA [JR_SV3TOV2_Sub066] (puzzle: Sensor v3, turn-off variant 2)
- apparent KD of MS2 coat protein [2]: 93.6 nM
- apparent KD of MS2 coat protein [1]: 126 nM
- apparent KD of MS2 coat protein [3]: 127 nM

Sequence: ACAACAAGCUUUUUGUUCGUAGAACAUGAUGCUCUAGUCACAUGAGGAUCACCCAUGUCAACCAGAUAGAUAGUUGA [JR_SV3TOV2_Sub063] (puzzle: Sensor v3, turn-off variant 2)
- apparent KD of MS2 coat protein [2]: 53.1 nM
- apparent KD of MS2 coat protein [1]: 143 nM
- apparent KD of MS2 coat protein [3]: 50.4 nM

Sequence: ACAAGAAUAGGAUAUACAACAUGCCAGCUUCUUUACAACGCACAUGAGGAUCACCCAUGUAGAAGGGUUCUCUG [Exclusion-2-#14] (Eterna round: R97, puzzle: Exclusion 2)
- apparent KD of MS2 coat protein (input ligand: FMN 200 uM): 360 nM
- apparent KD of MS2 coat protein (input ligand: none): 329 nM

Sequence: ACAAGCUAAAUCAUAUCUUACAUGAGGAUCACCCAUGUUUUUGCAAUUAUGUUUGGGCUCUUUUGUGCUCGUCUUAU [JR_STOV1_Sub050] (Eterna round: R97, puzzle: Sensor, turn-off variant 1)
- apparent KD of MS2 coat protein (input ligand: FMN 200 uM): 16.1 nM
- apparent KD of MS2 coat protein (input ligand: none): 17.6 nM

Sequence: ACAAGCUCUGUUGGGUGGUACAUGAGGAUCACCCAUGUUUUGCUCGUCUUGUGGGCCCGGGCCCGCGGCCCGGGCCC [-41.7, -69.7, A 12%] (Eterna round: R97, puzzle: Sensor, turn-off variant 1)
- apparent KD of MS2 coat protein (input ligand: FMN 200 uM): 513 nM
- apparent KD of MS2 coat protein (input ligand: none): 807 nM

Sequence: ACAAGCUUAAAAGGUGAUAACAUGAGGAUCACCCAUGUUCGUCUUAUAAAAAUAAAAAUAAAAAAUAAAAAAUAAAA [Sensor V2: 61] (Eterna round: R96, puzzle: Sensor v2, turn-off variant)
- apparent KD of MS2 coat protein (input ligand: FMN 200 uM): 23.1 nM
- apparent KD of MS2 coat protein [4]: 114 nM
- apparent KD of MS2 coat protein (input ligand: none): 24.2 nM

Sequence: ACAAGCUUAAUCAGUAAGAACAUGAGGAUCACCCAUGUAAAAGGGAAGACAAUUGGGUUAUUUAAAGCUCGUCUUAU [JR_STOV1_Sub015] (Eterna round: R97, puzzle: Sensor, turn-off variant 1)
- apparent KD of MS2 coat protein (input ligand: FMN 200 uM): 62.7 nM
- apparent KD of MS2 coat protein (input ligand: none): 111 nM

Sequence: ACAAGCUUGUAAUGAUUGAACAUGAGGAUCACCCAUGUAAAUGGAAGAACCAAUUGGAUAAGAUAAACUCGUCUUAU [JR_STOV1_Sub004] (Eterna round: R97, puzzle: Sensor, turn-off variant 1)
- apparent KD of MS2 coat protein (input ligand: FMN 200 uM): 107 nM
- apparent KD of MS2 coat protein (input ligand: none): 114 nM

Sequence: ACAAGCUUUUAGAUUCUUAACAUGAGGAUCACCCAUGUGCUCGUCUUAUUGGCCGGCCGGCCGCCGGAAAAGCUUGU (Eterna round: R97, puzzle: Sensor, turn-off variant 1)
- apparent KD of MS2 coat protein (input ligand: FMN 200 uM): 24.9 nM
- apparent KD of MS2 coat protein (input ligand: none): 25.3 nM

Sequence: ACAAGCUUUUAGAUUUUCAACAUGAGGAUCACCCAUGUUCGUCUUGUGCUAGUGCGAGUGCGGUGUACUCGUAUUAG [JL TOV1 3.82 sellena mod] (Eterna round: R97, puzzle: Sensor, turn-off variant 1)
- apparent KD of MS2 coat protein (input ligand: FMN 200 uM): 18.5 nM
- apparent KD of MS2 coat protein (input ligand: none): 18.4 nM

Sequence: ACAAGCUUUUAGAUUUUCAACAUGAGGAUCACCCAUGUUCGUCUUGUGCUCGGGCUUGGGCGGUGUCCGGGUUUGGG [JL TOV1 3.77 sellena mod] (Eterna round: R97, puzzle: Sensor, turn-off variant 1)
- apparent KD of MS2 coat protein (input ligand: FMN 200 uM): 33 nM
- apparent KD of MS2 coat protein (input ligand: none): 34.7 nM

Sequence: ACAAGCUUUUGCUCGUCUUACAUGAGGAUCACCCAUGUCGGAUGAUCGCUUGCGUCCGGCGUCUGAGCCGUGACGGU [Sensor, turn off variant MOD of sellena. cleaned up dot.] (Eterna round: R97, puzzle: Sensor, turn-off variant 1)
- apparent KD of MS2 coat protein (input ligand: FMN 200 uM): 15.3 nM
- apparent KD of MS2 coat protein (input ligand: none): 15 nM

Sequence: ACAAGCUUUUGCUCGUCUUACAUGAGGAUCACCCAUGUCGGGAGCAUGCAUACGUCCAGCAUCUGGACCGUAGCAGA [-25.7, -49.8 kcal, 25% A] (Eterna round: R97, puzzle: Sensor, turn-off variant 1)
- apparent KD of MS2 coat protein (input ligand: FMN 200 uM): 16.3 nM
- apparent KD of MS2 coat protein (input ligand: none): 18.1 nM

Sequence: ACAAGCUUUUUCGUGGGUGACAUGAGGAUCACCCAUGUUUGCCACGUCUUGUGGGCCCGGGCCCGCGGCCCGGGCCC [-44.6, -64.9, A 13%] (Eterna round: R97, puzzle: Sensor, turn-off variant 1)
- apparent KD of MS2 coat protein (input ligand: FMN 200 uM): 45.8 nM
- apparent KD of MS2 coat protein (input ligand: none): 47.1 nM

Sequence: ACAAGCUUUUUGCUCGGCUACAUGAGGAUCACCCAUGUUGUGUGUUAUUGUUUUUGAUUGUUCGUGCGCAGCAGGUA [JR_SV3TOV1_Sub073] (puzzle: Sensor v3, turn-off variant 1)
- apparent KD of MS2 coat protein [2]: 71 nM
- apparent KD of MS2 coat protein [1]: 29.4 nM
- apparent KD of MS2 coat protein [3]: 112 nM

Sequence: ACAAGCUUUUUGCUCGUCGAGUAGAAACGUGAGAGCGAGACAUGAGGAUCACCCAUGUAAAGGCAGUAGGUGGAGAU [JR_SV3TOV2_Sub025] (puzzle: Sensor v3, turn-off variant 2)
- apparent KD of MS2 coat protein [2]: 33.2 nM
- apparent KD of MS2 coat protein [1]: 43.2 nM
- apparent KD of MS2 coat protein [3]: 33.9 nM

Sequence: ACAAGCUUUUUGCUCGUCUACAUGAGGAUCACCCAUGUAGUGAGAUAGUGGUGAAGAUAGAAUGAGCGUAGUAGGUA [JR_SV3TOV1_Sub070] (puzzle: Sensor v3, turn-off variant 1)
- apparent KD of MS2 coat protein [2]: 14.5 nM
- apparent KD of MS2 coat protein [1]: 34.1 nM
- apparent KD of MS2 coat protein [3]: 10.2 nM

Sequence: ACAAGCUUUUUGUUCGUCUUAUAAUAUUCUAAGAGGAUAACAUGAGGAUCACCCAUGUAACAAAGACGGACUCAUGU [Sesor Array 14 - Jieux - Sensor v3, turn-off variant 2] (puzzle: Sensor v3, turn-off variant 2)
- apparent KD of MS2 coat protein [2]: 13 nM
- apparent KD of MS2 coat protein [1]: 139 nM
- apparent KD of MS2 coat protein [3]: 11.7 nM

Sequence: ACAAGCUUUUUGUUCGUCUUAUACACUCCUAAGAGGACAACAUGAGGAUCACCCAUGUAACAAAGACGGACUCAUGU [Sesor Array 11 - Jieux - Sensor v3, turn-off variant 2] (puzzle: Sensor v3, turn-off variant 2)
- apparent KD of MS2 coat protein [2]: 17.7 nM
- apparent KD of MS2 coat protein [1]: 129 nM
- apparent KD of MS2 coat protein [3]: 12 nM

Sequence: ACAAGCUUUUUGUUCGUCUUAUACACUCCUAAUAGGACAACAUGAGGAUCACCCAUGUAACAAAGACGAACUCAUGU [Sesor Array 9 - Jieux - Sensor v3, turn-off variant 2] (puzzle: Sensor v3, turn-off variant 2)
- apparent KD of MS2 coat protein [2]: 11.6 nM
- apparent KD of MS2 coat protein [1]: 169 nM
- apparent KD of MS2 coat protein [3]: 9.63 nM

Sequence: ACAAUGUUAGGAUAUCUGACAAUUAGUCUCGACUAGUCGAAAGAGAAGGAACAUGAGGAUCACCCAUGUAGAUC [EX4 #73] (Eterna round: R97, puzzle: Exclusion 4)
- apparent KD of MS2 coat protein (input ligand: FMN 200 uM): 144 nM
- apparent KD of MS2 coat protein (input ligand: none): 37.4 nM

Sequence: ACAAUUAUGACAGGAUAUAGUUUUUGUUGGUCACUAGAAGGGUCUAUGCACAUGAGGAUCACCCAUGUUCUUUUUAUAUGCGAU [JR_ExcNG1_Sub018] (Eterna round: R96, puzzle: Exclusion NG 1)
- apparent KD of MS2 coat protein (input ligand: FMN 200 uM): 31.8 nM
- apparent KD of MS2 coat protein [4]: 36.2 nM
- apparent KD of MS2 coat protein (input ligand: none): 44.4 nM

Sequence: ACACAAGCCCUUUGCUCGUUUUAAUACAGCGGGCUCUUCACAUGAGGAUCACCCAUGUAGGCCUUGUUCCAAGGCCG [Rebileve] (puzzle: Sensor v3, turn-off variant 2)
- apparent KD of MS2 coat protein [2]: 20.4 nM
- apparent KD of MS2 coat protein [1]: 23.6 nM
- apparent KD of MS2 coat protein [3]: 20 nM

Sequence: ACACAGCAAGGAUAUACAUGAGGAUCACCCAUGUGGUGGCAGUUACGGUAGGACUAGUGUAGAAGGUGCAGUGG [EX3 #30] (Eterna round: R97, puzzle: Exclusion 3)
- apparent KD of MS2 coat protein (input ligand: FMN 200 uM): 487 nM
- apparent KD of MS2 coat protein (input ligand: none): 668 nM

Sequence: ACACAGCGAGGAUAUACAUGAGGAUCACCCAUGUGGCGGCCGUUACGGUAGGACUAGUGUAGAAGGCGCAUUGG [EX3 #34] (Eterna round: R97, puzzle: Exclusion 3)
- apparent KD of MS2 coat protein (input ligand: FMN 200 uM): 203 nM
- apparent KD of MS2 coat protein (input ligand: none): 247 nM

Sequence: ACACAGCGAGGAUAUACAUGAGGAUCACCCAUGUGGUGGCAGUUACGGUAGGACUAGUGUAGAAGGUGCCGUGG [EX3 #28] (Eterna round: R97, puzzle: Exclusion 3)
- apparent KD of MS2 coat protein (input ligand: FMN 200 uM): 600 nM
- apparent KD of MS2 coat protein (input ligand: none): 588 nM

Sequence: ACACUGCUAGGAUAUGCAGCGGCAUCAGCCGAAAGUCCCUCACAUGAGGAUCACCCAUGUAGAAGGAGCAAGAC [Eternabot (Original) Solution 13] (Eterna round: R97, puzzle: Exclusion 2)
- apparent KD of MS2 coat protein (input ligand: FMN 200 uM): 26.9 nM
- apparent KD of MS2 coat protein (input ligand: none): 26.6 nM
